Measured values as given in patent publication US20060257938A1, “Method of screening for drugs that block ligand binding to a lipid binding protein” (priority 2005, published 2006).

B1: 49S1, 72A (protein, listed as Rattus norvegicus)
chain: AFDGTWKVDRNENYEKFMEKMGINVVKRKLGAHDNLKLTITQEGNKFTSKESSNFRNIDVVFELGVDFAYSAADGTELTGTWTMEGNKLVGKFKRVDNGKELIAVREISGNELIQTYTYEGVEAKRIFKKE
modifications: PEPTIDE (1)...(131) wild-type rat intestinal fatty acid binding protein
B2: 51C3, 72A (protein, listed as Rattus norvegicus)
chain: AFDGTWKVDRNENYEKFMEKMGINVVKRKLGAHDNLKLTITQEGNKFTVKCSSNFRNIDVVFELGVDFAYSAADGTELTGTWTMEGNKLVGKFKRVDNGKELIAVREISGNELIQTYTYEGVEAKRIFKKE
modifications: PEPTIDE (1)...(131) wild-type rat intestinal fatty acid binding protein
B3: 49Y1, 72A (protein, listed as Rattus norvegicus)
chain: AFDGTWKVDRNENYEKFMEKMGINVVKRKLGAHDNLKLTITQEGNKFTYKESSNFRNIDVVFELGVDFAYSAADGTELTGTWTMEGNKLVGKFKRVDNGKELIAVREISGNELIQTYTYEGVEAKRIFKKE
modifications: PEPTIDE (1)...(131) wild-type rat intestinal fatty acid binding protein
B4: 51N1, 72A (protein, listed as Rattus norvegicus)
chain: AFDGTWKVDRNENYEKFMEKMGINVVKRKLGAHDNLKLTITQEGNKFTVKNSSNFRNIDVVFELGVDFAYSAADGTELTGTWTMEGNKLVGKFKRVDNGKELIAVREISGNELIQTYTYEGVEAKRIFKKE
modifications: PEPTIDE (1)...(131) wild-type rat intestinal fatty acid binding protein
B5: 49T1, 72A (protein, listed as Rattus norvegicus)
chain: AFDGTWKVDRNENYEKFMEKMGINVVKRKLGAHDNLKLTITQEGNKFTTKESSNFRNIDVVFELGVDFAYSAADGTELTGTWTMEGNKLVGKFKRVDNGKELIAVREISGNELIQTYTYEGVEAKRIFKKE
modifications: PEPTIDE (1)...(131) wild-type rat intestinal fatty acid binding protein
B6: 51H1, 72A (protein, listed as Rattus norvegicus)
chain: AFDGTWKVDRNENYEKFMEKMGINVVKRKLGAHDNLKLTITQEGNKFTVKHSSNFRNIDVVFELGVDFAYSAADGTELTGTWTMEGNKLVGKFKRVDNGKELIAVREISGNELIQTYTYEGVEAKRIFKKE
modifications: PEPTIDE (1)...(131) wild-type rat intestinal fatty acid binding protein
B7: 51D1, 72A (protein, listed as Rattus norvegicus)
chain: AFDGTWKVDRNENYEKFMEKMGINVVKRKLGAHDNLKLTITQEGNKFTVKDSSNFRNIDVVFELGVDFAYSAADGTELTGTWTMEGNKLVGKFKRVDNGKELIAVREISGNELIQTYTYEGVEAKRIFKKE
modifications: PEPTIDE (1)...(131) wild-type rat intestinal fatty acid binding protein
B8: 51K1, 72A (protein, listed as Rattus norvegicus)
chain: AFDGTWKVDRNENYEKFMEKMGINVVKRKLGAHDNLKLTITQEGNKFTVKKSSNFRNIDVVFELGVDFAYSAADGTELTGTWTMEGNKLVGKFKRVDNGKELIAVREISGNELIQTYTYEGVEAKRIFKKE
modifications: PEPTIDE (1)...(131) wild-type rat intestinal fatty acid binding protein
B9: 49W1, 72A (protein, listed as Rattus norvegicus)
chain: AFDGTWKVDRNENYEKFMEKMGINVVKRKLGAHDNLKLTITQEGNKFTWKESSNFRNIDVVFELGVDFAYSAADGTELTGTWTMEGNKLVGKFKRVDNGKELIAVREISGNELIQTYTYEGVEAKRIFKKE
modifications: PEPTIDE (1)...(131) wild-type rat intestinal fatty acid binding protein
B10: 51R1, 72A (protein, listed as Rattus norvegicus)
chain: AFDGTWKVDRNENYEKFMEKMGINVVKRKLGAHDNLKLTITQEGNKFTVKRSSNFRNIDVVFELGVDFAYSAADGTELTGTWTMEGNKLVGKFKRVDNGKELIAVREISGNELIQTYTYEGVEAKRIFKKE
modifications: PEPTIDE (1)...(131) wild-type rat intestinal fatty acid binding protein
B11: 51L3, 72A (protein, listed as Rattus norvegicus)
chain: AFDGTWKVDRNENYEKFMEKMGINVVKRKLGAHDNLKLTITQEGNKFTVKLSSNFRNIDVVFELGVDFAYSAADGTELTGTWTMEGNKLVGKFKRVDNGKELIAVREISGNELIQTYTYEGVEAKRIFKKE
modifications: PEPTIDE (1)...(131) wild-type rat intestinal fatty acid binding protein
B12: 51A1, 72A (protein, listed as Rattus norvegicus)
chain: AFDGTWKVDRNENYEKFMEKMGINVVKRKLGAHDNLKLTITQEGNKFTVKASSNFRNIDVVFELGVDFAYSAADGTELTGTWTMEGNKLVGKFKRVDNGKELIAVREISGNELIQTYTYEGVEAKRIFKKE
modifications: PEPTIDE (1)...(131) wild-type rat intestinal fatty acid binding protein
B13: 51F1, 72A (protein, listed as Rattus norvegicus)
chain: AFDGTWKVDRNENYEKFMEKMGINVVKRKLGAHDNLKLTITQEGNKFTVKFSSNFRNIDVVFELGVDFAYSAADGTELTGTWTMEGNKLVGKFKRVDNGKELIAVREISGNELIQTYTYEGVEAKRIFKKE
modifications: PEPTIDE (1)...(131) wild-type rat intestinal fatty acid binding protein
B14: 51Q1, 72A (protein, listed as Rattus norvegicus)
chain: AFDGTWKVDRNENYEKFMEKMGINVVKRKLGAHDNLKLTITQEGNKFTVKQSSNFRNIDVVFELGVDFAYSAADGTELTGTWTMEGNKLVGKFKRVDNGKELIAVREISGNELIQTYTYEGVEAKRIFKKE
modifications: PEPTIDE (1)...(131) wild-type rat intestinal fatty acid binding protein
B15: 51G1, 72A (protein, listed as Rattus norvegicus)
chain: AFDGTWKVDRNENYEKFMEKMGINVVKRKLGAHDNLKLTITQEGNKFTVKGSSNFRNIDVVFELGVDFAYSAADGTELTGTWTMEGNKLVGKFKRVDNGKELIAVREISGNELIQTYTYEGVEAKRIFKKE
modifications: PEPTIDE (1)...(131) wild-type rat intestinal fatty acid binding protein
B16: 51I1, 72A (protein, listed as Rattus norvegicus)
chain: AFDGTWKVDRNENYEKFMEKMGINVVKRKLGAHDNLKLTITQEGNKFTVKISSNFRNIDVVFELGVDFAYSAADGTELTGTWTMEGNKLVGKFKRVDNGKELIAVREISGNELIQTYTYEGVEAKRIFKKE
modifications: PEPTIDE (1)...(131) wild-type rat intestinal fatty acid binding protein
B17: 51P3, 72A (protein, listed as Rattus norvegicus)
chain: AFDGTWKVDRNENYEKFMEKMGINVVKRKLGAHDNLKLTITQEGNKFTVKPSSNFRNIDVVFELGVDFAYSAADGTELTGTWTMEGNKLVGKFKRVDNGKELIAVREISGNELIQTYTYEGVEAKRIFKKE
modifications: PEPTIDE (1)...(131) wild-type rat intestinal fatty acid binding protein

Key:
Format in all cases: binding
[1] = Probe fluorescence ratio response to arachidonic acid relative to ADIFAB2; details: Arachidonic acid; response relative to ADIFAB2
Method in brief: (§1)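 Each fatty acid's response was expressed relative to ADIFAB2, the rI-FABP-L72A probe, as ΔR/ΔRreference. ΔR is the change in the background-corrected two-wavelength intensity ratio R=Fλ1/Fλ2 from its analyte-free baseline R0. Emission was read near about 420-480 nm for unbound and about 495-580 nm for FFA-bound probe.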

[2] = Probe fluorescence ratio response to oleic acid relative to ADIFAB2; details: response relative to ADIFAB2
Method in brief: as §1

[3] = Probe fluorescence ratio response to linolenic acid relative to ADIFAB2; details: response relative to ADIFAB2
Method in brief: as §1

[4] = Probe fluorescence ratio response to linoleic acid relative to ADIFAB2; details: response relative to ADIFAB2
Method in brief: as §1

[5] = Probe fluorescence ratio response to palmitic acid relative to ADIFAB2; details: response relative to ADIFAB2
Method in brief: as §1

Molecule	DR/DR AA [1]	DR/DR OA [2]	DR/DR LNA [3]	DR/DR LA [4]	DR/DR PA [5]
B1	1.27	1.18	1.34	1.29	0.66
B2	1.44	1.35	1.47	1.55	0.69
B3	1.39	1.34	1.44	1.51	0.70
B4	1.38	1.26	1.39	1.46	0.73
B5	0.66	0.67	0.64	0.67	0.43
B6	1.52	0.58	1.58	1.64	0.81
B7	1.34	1.28	1.39	1.38	0.68
B8	1.00	1.01	1.02	−0.01	0.56
B9	0.58	0.56	0.58	0.58	0.35
B10	1.50	1.35	1.56	1.56	0.73
B11	1.64	1.45	1.66	1.65	0.76
B12	1.38	1.28	1.49	1.48	0.70
B13	1.64	1.47	1.60	1.70	0.76
B14	1.56	1.43	1.65	1.63	0.73
B15	1.64	1.57	1.76	1.71	0.78
B16	1.50	1.41	1.62	1.55	0.72
B17	1.42	1.21	1.48	1.42	0.72
